Target: the molecule itself
Assay: SEC-MALS

B1: SbnA (wild type, Staphylococcus aureus strain Newman) (enzyme, UniProt A6QDA0 1-326, looked up)
chain: MIEKSQACHDSLLDSVGQTPMVQLHQLFPKHEVFAKLEYMNPGGSMKDRPAKYIIEHGIKHGLITENTHLIESTSGNLGIALAMIAKIKGLKLTCVVDPKISPTNLKIIKSYGANVEMVEEPDAHGGYLMTRIAKVQELLATIDDAYWINQYANELNWQSHYHGAGTEIVETIKQPIDYFVAPVSTTGSIMGMSRKIKEVHPNAQIVAVDAKGSVIFGDKPINRELPGIGASRVPEILNRSEINQVIHVDDYQSALGCRKLIDYEGIFAGGSTGSIIAAIEQLITSIEEGATIVTILPDRGDRYLDLVYSDTWLEKMKSRQGVKSE
modifications: PLP (pyridoxal 5'-phosphate) covalently bound to Lys47 by an internal Schiff base (as isolated)
stoichiometry N: 2

Reference: PMC5084695 (Biochemistry, 2016)
